Laboratory results from patent US20260166185A1 (Y MABS THERAPEUTICS, published 2026).
Blank lines part the entries; values can stand above or below the binder they belong to.

Key:
bio-huCD276 [1] = biological target: T1, bio-huCD276 (human (hu), UniProt Q5ZPR3 29-461, limits assumed, biotinylated (bio-), site not stated); assay: SPR, antibody captured on chip, antigen as analyte 400-12.5 nM
T1 construct: also called B7-H3
T1 sequence (looked up): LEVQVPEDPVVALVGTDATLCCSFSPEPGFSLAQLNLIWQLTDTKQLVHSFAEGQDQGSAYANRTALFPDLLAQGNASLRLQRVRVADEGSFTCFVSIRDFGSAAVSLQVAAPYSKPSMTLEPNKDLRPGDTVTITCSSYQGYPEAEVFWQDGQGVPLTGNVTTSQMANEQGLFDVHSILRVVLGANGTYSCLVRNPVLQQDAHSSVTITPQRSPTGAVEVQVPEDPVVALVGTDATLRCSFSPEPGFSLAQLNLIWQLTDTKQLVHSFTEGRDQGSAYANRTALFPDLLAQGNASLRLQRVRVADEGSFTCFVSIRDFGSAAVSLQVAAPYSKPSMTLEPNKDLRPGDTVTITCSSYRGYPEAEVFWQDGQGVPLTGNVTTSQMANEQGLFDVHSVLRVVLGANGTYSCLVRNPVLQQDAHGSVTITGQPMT
Description: (§1) SPR analysis was performed on a Biocore 8K+, using a CFJB0944 CM5 sensor chip for immobilization and a SPR running buffer 1×HBS-EP+pH 7.4 (Cytiva, cat no. BR100669) according to the manufacturer's instructions.
(§2) In the first part of this example the antibody was immobilized on the chip and the antigen dissolved in the SPR running buffer flowed over the chip.

CD276 on HEK293T cells = biological target: T2, CD276 on HEK293T cells (UniProt Q5ZPR3 29-534, limits assumed); assay: titration binding FACS on HEK293T cells
T2 construct: whole, on cells
T2 sequence (looked up): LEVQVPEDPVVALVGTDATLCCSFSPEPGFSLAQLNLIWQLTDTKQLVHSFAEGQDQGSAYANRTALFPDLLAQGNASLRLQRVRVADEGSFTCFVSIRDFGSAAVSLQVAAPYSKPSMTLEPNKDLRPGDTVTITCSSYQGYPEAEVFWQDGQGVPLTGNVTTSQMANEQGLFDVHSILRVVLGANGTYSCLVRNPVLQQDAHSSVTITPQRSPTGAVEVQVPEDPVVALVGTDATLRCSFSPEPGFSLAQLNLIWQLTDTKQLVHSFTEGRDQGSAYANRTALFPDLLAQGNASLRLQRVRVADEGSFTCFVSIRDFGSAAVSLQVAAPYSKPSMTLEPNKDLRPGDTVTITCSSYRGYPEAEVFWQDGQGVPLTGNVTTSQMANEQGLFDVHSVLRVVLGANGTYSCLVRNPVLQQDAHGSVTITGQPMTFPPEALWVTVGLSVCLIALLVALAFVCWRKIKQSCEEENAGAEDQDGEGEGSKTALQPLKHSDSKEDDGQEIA
Description: (§3) Subsequently the EC50 of antibodies samples was determined by titration binding FACS on Daudi cells (for CD38 binding evaluation), on THP-1 cells (for CD33 binding evaluation), on A-431 cells (for EGFR binding evaluation), on MKN-45 cells (for CEACAMS binding evaluation) and on HEK293T (for CD276 binding evaluation). Jurkat E6-1 or HEK293T cell lines were used as negative control, as applicable.

bio-huCD276 [2] = biological target: T1, bio-huCD276; assay: SPR, antigen immobilized, antibody as analyte 25-1.6 nM
Description: as §1
(§4) In the second part of this example, antigen was immobilized on the chip and antibody dissolved in the SPR running buffer flowed over the chip.

bio-huCD38 [3] = biological target: T3, bio-huCD38 (human (hu), UniProt P28907 43-300, biotinylated (bio-), site not stated); assay: SPR, antigen immobilized, antibody as analyte 25-1.6 nM; at the instrument's limit
bio-huCD38 [4] = biological target: T3, bio-huCD38; assay: SPR, antigen immobilized, antibody as analyte 25-1.6 nM; estimated from ka and the limit kd
Description: as §1, §4

bio-huCD38 [5] = biological target: T3, bio-huCD38; assay: SPR, antigen immobilized, antibody as analyte 25-1.6 nM
Description: as §1, §4

bio-huCD38 [6] = biological target: T3, bio-huCD38; assay: SPR, antibody captured on chip, antigen as analyte 200-6.25 nM
Description: as §1, §2

CD38 on Daudi cells = biological target: T4, CD38 on Daudi cells (UniProt P28907 1-300, limits assumed); assay: titration binding FACS on Daudi cells
T4 construct: whole, on cells
Description: as §3

Kd (bio-huCD276 [1]): 40.1 nM | koff (bio-huCD276 [1]): 0.00456 s⁻¹ | kon (bio-huCD276 [1]): 114000 M⁻¹ s⁻¹ | EC50 (CD276 on HEK293T cells): 2.14 nM | Kd (bio-huCD276 [2]): 2.5 nM | koff (bio-huCD276 [2]): 2.26e-05 s⁻¹ | kon (bio-huCD276 [2]): 9050 M⁻¹ s⁻¹
B1: CD276-DOTA(fab)-p53 (bispecific antibody)
light: DVQLVESGGGLVQPGGSLRLSCAASGFTFSRYWMGWFRQAPGKGVEWVSTINSGGGSTYYADSVKGRFTISRDNAKNTLYLQLNNLKTEDTAMYYCAKEQWRTGSRGQGTQVTVSSSGGGGSGGGGSGGGGSGGGGSQAVVIQESALTTPPGETVTLTCGSSTGAVTASNYANWVQEKPDHLFTGLIGGHNNRPPGVPARFSGSLIGDKAALTIAGTQTEDEAIYFCALWYSDHWVIGGGTRLTVLGQPKANPTVTLFPPSSEELQANKATLVCLISDFYPGAVTVAWKADGSPVKAGVETTKPSKQSNNKYAASSYLSLTPEQWKSHRSYSCQVTHEGSTVEKTVAPTECS
heavy: HVKLQESGPGLVQPSQSLSLTCTVSGFSLTDYGVHWVRQSPGKGLEWLGVIWSGGGTAYNTALISRLNIYRDNSKNQVFLEMNSLQAEDTAMYYCARRGSYPYNYFDAWGRGTTVTVSSASTKGPSVFPLAPSSKSTSGGTAALGCLVKDYFPEPVTVSWNSGALTSGVHTFPAVLQSSGLYSLSSVVTVPSSSLGTQTYICNVNHKPSNTKVDKKVEPKSCGGGGSGGGGSKPLDGEYFTLQIRGRERFEMFRELNEALELKDAQAGKEPGGS
notes: Tetramerizes through p53 depending on concentration; also called YM00012; molecule 11

koff (bio-huCD38 [3]): < 1e-07 s⁻¹ | Kd (bio-huCD38 [4]): < 0.000309 nM | kon (bio-huCD38 [5]): 324000 M⁻¹ s⁻¹ | Kd (bio-huCD38 [6]): 25.1 nM | koff (bio-huCD38 [6]): 0.00112 s⁻¹ | kon (bio-huCD38 [6]): 44700 M⁻¹ s⁻¹ | EC50 (CD38 on Daudi cells): 0.32 nM
B2: CD38 (Bivalent)-DOTA(Fab)-dp53 (bispecific antibody)
light: DVQLQESGGGLVQAGGSLRLSCTGSGRTFRNYPMAWFRQAPGKEREFVAGITWVGASTLYADFAKGRFTISRDNAKNTVYLQMNSLKPEDTAVYSCAAGRGIVAGRIPAEYADWGQGTQVTVSSGGGGSGGGGSGGGGSGGGGGSQAVVIQESALTTPPGETVTLTCGSSTGAVTASNYANWVQEKPDHLFTGLIGGHNNRPPGVPARFSGSLIGDKAALTIAGTQTEDEAIYFCALWYSDHWVIGGGTRLTVLGQPKANPTVTLFPPSSEELQANKATLVCLISDFYPGAVTVAWKADGSPVKAGVETTKPSKQSNNKYAASSYLSLTPEQWKSHRSYSCQVTHEGSTVEKTVAPTECS
heavy: DVQLQESGGGLVQAGGSLRLSCTGSGRTFRNYPMAWFRQAPGKEREFVAGITWVGASTLYADFAKGRFTISRDNAKNTVYLQMNSLKPEDTAVYSCAAGRGIVAGRIPAEYADWGQGTQVTVSSGGGGSGGGGSGGGGSGGGGGSHVKLQESGPGLVQPSQSLSLTCTVSGFSLTDYGVHWVRQSPGKGLEWLGVIWSGGGTAYNTALISRLNIYRDNSKNQVFLEMNSLQAEDTAMYYCARRGSYPYNYFDAWGRGTTVTVSSASTKGPSVFPLAPSSKSTSGGTAALGCLVKDYFPEPVTVSWNSGALTSGVHTFPAVLQSSGLYSLSSVVTVPSSSLGTQTYICNVNHKPSNTKVDKKVEPKSCG
notes: No tetramerization domain; also called YM00005; molecule 4
